Assay results published in US6682891B2, “Methods of identifying nucleic acid sequences encoding plant riboflavin synthase enzymes” (E. I. du Pont de Nemours and Company, priority 1997, dated 2004).

Key:
B. subtilis RS = target: T1, B. subtilis RS (Bacillus subtilis, UniProt P16440); conditions: 37° C.; cited from earlier work
T1 sequence (P16440 whole entry, looked up): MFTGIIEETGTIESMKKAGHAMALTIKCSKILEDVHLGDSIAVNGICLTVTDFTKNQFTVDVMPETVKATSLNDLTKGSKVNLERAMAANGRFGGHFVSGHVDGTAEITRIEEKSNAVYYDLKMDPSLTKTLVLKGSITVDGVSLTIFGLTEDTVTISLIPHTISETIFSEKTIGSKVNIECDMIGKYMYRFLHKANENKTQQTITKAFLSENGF

S. cerevisiae RS = target: T2, S. cerevisiae RS (Saccharomyces cerevisiae, UniProt P38145); conditions: 37° C.; cited from earlier work
T2 sequence (P38145 1-238): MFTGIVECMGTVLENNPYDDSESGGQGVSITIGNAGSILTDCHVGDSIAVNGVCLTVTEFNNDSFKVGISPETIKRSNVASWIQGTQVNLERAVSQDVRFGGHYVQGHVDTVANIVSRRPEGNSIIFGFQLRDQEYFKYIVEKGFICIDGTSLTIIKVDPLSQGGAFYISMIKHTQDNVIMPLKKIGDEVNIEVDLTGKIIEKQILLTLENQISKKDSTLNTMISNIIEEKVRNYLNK

E. coli LS = E. coli LS (Escherichia coli, UniProt P61714); conditions: 37° C.; cited from earlier work
yeast LS = yeast LS (Saccharomyces cerevisiae, UniProt P50861); conditions: 37° C.; cited from earlier work
[1] = test system: purified recombinant spinach RS; assay: Riboflavin synthase assay (riboflavin formation from DMRL, 470 nm); assay type: biochemical, spinach (Spinacea oleracea); conditions: 25° C., based on protomer
Description: Riboflavin synthase assays were run using 1-mL reaction mixtures containing 0.1 mM DMRL in 50 mM Tris-Cl (pH 7.5) at 25° C. Reactions were initiated by the addition of purified recombinant spinach RS and initial rates of the reactions were measured continuously at 470 nm. A molar extinction coefficient (ε) of 9500 at 470 nm was used to calculate the formation of riboflavin (Plaut, G. W. E. and Harvey, R. A., Methods in Enzymology (McCormick, D. B. and Wright L. D., eds.) vol. 18, part B, pp. 515-538, Academic Press, N.Y. (1971)).

B. subtilis LS = target: T3, B. subtilis LS (Bacillus subtilis, UniProt P11998); conditions: 37° C.; cited from earlier work
T3 sequence (P11998 whole entry, looked up): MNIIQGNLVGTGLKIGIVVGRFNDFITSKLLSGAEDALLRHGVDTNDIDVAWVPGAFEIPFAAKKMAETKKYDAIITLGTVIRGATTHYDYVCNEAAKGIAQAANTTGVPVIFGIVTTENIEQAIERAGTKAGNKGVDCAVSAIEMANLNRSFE

B1: B. subtilis RS: B. subtilis riboflavin synthase, literature comparison (Bacher et al.) (protein, UniProt P16440 1-215, looked up)
Riboflavin synthase: T1 sequence (P16440 whole entry, looked up)
- reported turnover number (B. subtilis RS): 0.33 s⁻¹

B2: S. cerevisiae RS: yeast riboflavin synthase, literature comparison (Santos et al.) (protein, UniProt P38145 1-238, looked up)
Riboflavin synthase: T2 sequence (P38145 1-238)
- reported turnover number (S. cerevisiae RS): 0.13 s⁻¹

B3: E. coli LS: purified E. coli lumazine synthase, literature comparison (protein, UniProt P61714 1-156, looked up)
6,7-dimethyl-8-ribityllumazine …: MNIIEANVATPDARVAITIARFNNFINDSLLEGAIDALKRIGQVKDENITVVWVPGAYELPLAAGALAKTGKYDAVIALGTVIRGGTAHFEYVAGGASNGLAHVAQDSEIPVAFGVLTTESIEQAIERAGTKAGNKGAEAALTALEMINVLKAIKA
- reported turnover number (E. coli LS): 0.06 s⁻¹

B4: yeast LS: purified yeast lumazine synthase, literature comparison (protein, UniProt P50861 1-169, looked up)
6,7-dimethyl-8-ribityllumazine …: MAVKGLGKPDQVYDGSKIRVGIIHARWNRVIIDALVKGAIERMASLGVEENNIIIETVPGSYELPWGTKRFVDRQAKLGKPLDVVIPIGVLIKGSTMHFEYISDSTTHALMNLQEKVDMPVIFGLLTCMTEEQALARAGIDEAHSMHNHGEDWGAAAVEMAVKFGKNAF
- reported turnover number (yeast LS): 0.06 s⁻¹

B5: recombinant spinach RS: purified recombinant mature spinach riboflavin synthase expressed in E. coli, without transit peptide (SEQ ID NO:8) (protein)
chain: MFTGIVEEIGRVKQMGYGEDGGFQLKVVGDIVLKDVNLGDSIAVNGTCLTVTEFDTKASEFTLGIAPETLRKTALMDLEPGSVVNLERALLPSTRMGGHFVQGHVDGTGEIVSLVEEGDSLWVKIKTSPEILRYIVPKGFIAIDGTSLTVVDVFDQELCFNIMLVAYTQQNVVIPLKKVGQKVNLEVDILGKYVERLLSSSGVLDPTKFT
- turnover number [1]: approximately 0.08 /sec

B6: B. subtilis LS: purified B. subtilis lumazine synthase, literature comparison (protein, UniProt P11998 1-154, looked up)
6,7-dimethyl-8-ribityllumazine …: T3 sequence (P11998 whole entry, looked up)
- reported turnover number (B. subtilis LS): 0.06 s⁻¹
